Experimental data as given in publication PMC8494329.

Target: 16055 NFL trimer (native flexibly linked HIV-1 Env stabilized trimer, clade C strain 16055) (HIV-1, clade C, strain 16055)

| Binder | IC50 of neutralisation of the autologous 16055 pseudovirus (TZM-bl cells); the mAb on Env of the virus |
| --- | --- |
| VD20.5A4 Fab (Fab, V domains shown) VH: QVQLQESGPGLVKPSETLSLTCAVSGASISSNYWSWIRQPPGKGLEWIGRIYDPTDSTDYNPSLESRATISKDTSKNHFSLTLSSVTAADTAVYFCARGLWSGYFFWFDVWGPGVLVTVSS VL: DIQMTQSPSSLSASVGDSVTVTCRASQGIDKELSWYQQKPGKAPTLLIYAASSLQTGVSSRFSGSGSGTDYTLTISSLQPEDVATYYCLQDYATPYSFGQGTKVEIK | 0.005 μg/mL |
| D11A.B5 Fab (Fab, V domains shown) VH: HLQLQESGPGLVKPSETLSLTCAVSGGSSSDYWWSWIRQPPGKGLEWIGRIDSIGNTYYNPSLRSRVTLSVDTSKNQFSLELTSVTAADTAVYYCARPYCAIGRCYESWGQGVLVTVSS VL: EVVFTQPHSVSGSPGQTVTISCTRTSGSIDSEYVQWYQQRPGSAPTIVIYRDNQRPSGVPDRFSGSIDSSSNSASLAISGLKSEDEADYYCQSSDDSYNWVFGGGTRLTVL | 3.68 μg/mL |
